According to the Immune Epitope Database (IEDB):

How the values were obtained:
[1] = biological target: HLA-B*51:01; assay: IEDB peptide-MHC binding, purified MHC/competitive/radioactivity; filed as Kd, often an IC50 or EC50 that approximates it; ≥ and ≤ were set here for values at or beyond the usual limits of such assays
[2] = biological target: HLA-A*02:02; assay: as above; details: source organism: Vaccinia virus WR
[3] = biological target: HLA-A*02:03; assay: as above; details: source organism: Vaccinia virus WR
[4] = biological target: HLA-A*02:06; assay: as above; details: source organism: Vaccinia virus WR
[5] = biological target: HLA-A*02:01; assay: IEDB peptide-MHC binding, purified MHC/competitive/fluorescence; filed as Kd, often an IC50 or EC50 that approximates it; ≥ and ≤ were set here for values at or beyond the usual limits of such assays
[6] = biological target: HLA-A*69:01; assay: IEDB peptide-MHC binding, purified MHC/direct/fluorescence; filed as Kd, often an IC50 or EC50 that approximates it; ≥ and ≤ were set here for values at or beyond the usual limits of such assays
[7] = biological target: HLA-B*15:01; assay: as above
[8] = biological target: HLA-A*31:01; assay: as above; details: source organism: Salmonella enterica subsp. enterica serovar Typhimurium
[9] = biological target: HLA-A*02:01; assay: as above; details: source organism: Salmonella enterica subsp. enterica serovar Typhimurium
[10] = biological target: HLA-B*40:01; assay: as above; details: source organism: Mammarenavirus juninense
[11] = biological target: HLA-B*08:01; assay: IEDB peptide-MHC binding, purified MHC/competitive/radioactivity; filed as Kd, often an IC50 or EC50 that approximates it; ≥ and ≤ were set here for values at or beyond the usual limits of such assays
[12] = biological target: HLA-A*24:02; assay: IEDB peptide-MHC binding, purified MHC/competitive/fluorescence; ≥ and ≤ were set here for values at or beyond the usual limits of such assays
[13] = biological target: HLA-A*11:01; assay: IEDB peptide-MHC binding, purified MHC/direct/fluorescence; filed as Kd, often an IC50 or EC50 that approximates it; ≥ and ≤ were set here for values at or beyond the usual limits of such assays; details: source organism: SARS-CoV1
[14] = biological target: HLA-B*07:02; assay: as above
[15] = biological target: HLA-B*58:01; assay: as above; details: source organism: SARS-CoV1
[16] = biological target: HLA-A*02:01; assay: IEDB peptide-MHC binding, purified MHC/competitive/radioactivity; filed as Kd, often an IC50 or EC50 that approximates it; ≥ and ≤ were set here for values at or beyond the usual limits of such assays
[17] = biological target: HLA-A*02:01; assay: IEDB peptide-MHC binding, purified MHC/competitive/fluorescence; ≥ and ≤ were set here for values at or beyond the usual limits of such assays; details: source organism: Zaire ebolavirus
[18] = biological target: HLA-B*39:01; assay: IEDB peptide-MHC binding, purified MHC/competitive/fluorescence; filed as Kd, often an IC50 or EC50 that approximates it; ≥ and ≤ were set here for values at or beyond the usual limits of such assays; details: source organism: Escherichia coli str. K-12 substr. MG1655
[19] = biological target: HLA-B*35:01; assay: IEDB peptide-MHC binding, purified MHC/competitive/radioactivity; filed as Kd, often an IC50 or EC50 that approximates it; ≥ and ≤ were set here for values at or beyond the usual limits of such assays
[20] = biological target: HLA-B*27:05; assay: IEDB peptide-MHC binding, purified MHC/direct/fluorescence; filed as Kd, often an IC50 or EC50 that approximates it; ≥ and ≤ were set here for values at or beyond the usual limits of such assays
[21] = biological target: HLA-B*08:01; assay: as above; details: source organism: Burkholderia mallei ATCC 23344
[22] = source organism: Dengue virus 3 Martinique/1243/1999
[23] = source organism: Salmonella enterica subsp. enterica serovar Typhimurium
[24] = source organism: Dengue virus 2 Jamaica/1409/1983
[25] = source organism: Vaccinia virus WR
[26] = source organism: Zaire ebolavirus

Question: Which Kd [1, 22] does the source give for SPIINREGKV here?
Answer: The Kd was ≥ 69.6 µM.

Question: Which results are given for FVNFNSVKNL?
Answer: Kd [2]: 2.02 µM; Kd [3]: 0.318 µM; Kd [4]: 2.2 µM; Kd ([5]; source organism: Vaccinia virus L-IPV): 0.489 µM

Question: For GMFGGCFAA, which Kd [6, 23] is on record?
Answer: The Kd was 2.77 µM.

Question: And the Kd [7, 23]?
Answer: Its Kd is 0.161 µM.

Question: What about the Kd [8] of the same sequence?
Answer: The Kd was 1.22 µM.

Question: And the Kd [9]?
Answer: Its Kd is 0.01 µM.

Question: How did the Kd [10] turn out when GEEFFHQYL was run?
Answer: The Kd was 0.0102 µM.

Question: Which results are given for IPITAAAWYL?
Answer: Kd [11, 24]: 3.76 µM; Kd [1, 24]: 6.23 µM

Question: With SSKYYIKNI as the sequence, how does the IC50 ([12]; source organism: Vaccinia virus) read?
Answer: Its IC50 is ≥ 1450 µM.

Question: What does the source list for TTLPVNVAF?
Answer: Kd [13]: ≥ 27.3 µM; Kd ([14]; source organism: SARS-CoV1): 5.76 µM; Kd ([6]; source organism: SARS-CoV1): 0.02 µM; Kd [15]: 0.329 µM; Kd ([7]; source organism: SARS-CoV1): 1.76 µM

Question: How did the Kd ([1]; source organism: Dengue virus 1 Singapore/S275/1990) turn out when WPLNEGIMAV was run?
Answer: The Kd was 0.304 µM.

Question: With FNKTIFLSE as the sequence, how does the Kd [11, 25] read?
Answer: Its Kd is 0.255 µM.

Question: For TMYYKDVTV, which Kd ([16]; source organism: Human alphaherpesvirus 1 strain 17) is on record?
Answer: The Kd was 0.025 µM.

Question: How did the Kd [11, 25] turn out when NPKFFKVYL was run?
Answer: Its Kd is 0.19 µM.

Question: With HEHDQIGDI as the sequence, how does the IC50 ([12]; source organism: Variola virus) read?
Answer: The IC50 was 23.8 µM.

Question: IMVGNETGL was tested. Which Kd ([16]; source organism: Lassa virus Josiah) did it give?
Answer: The Kd was 4.17 µM.

Question: With PWLTEKEAM as the sequence, how does the IC50 [12, 26] read?
Answer: Its IC50 is 0.435 µM.

Question: What about the IC50 [17] of the same sequence?
Answer: Its IC50 is ≥ 216 µM.

Question: YRGTTFAEG was tested. Which IC50 [12, 26] did it give?
Answer: The IC50 was ≥ 147 µM.

Question: How did the IC50 [12, 26] turn out when NAPDDLVLF was run?
Answer: The IC50 was ≥ 107 µM.

Question: How did the Kd [1, 22] turn out when GPLVAGGLLI was run?
Answer: The Kd was 6.03 µM.

Question: With FHNDSTPRY as the sequence, how does the Kd [18] read?
Answer: Its Kd is 3.47 µM.

Question: IPRRIRQGL was tested. Which Kd ([14]; source organism: Human immunodeficiency virus type 1 (WMJ2 ISOLATE)) did it give?
Answer: Its Kd is 0.0948 µM.

Question: Which Kd ([5]; source organism: Escherichia coli) does the source give for ELLEPLYDV here?
Answer: The Kd was 0.0018 µM.

Question: With RPRHQGVMV as the sequence, how does the Kd ([14]; source organism: Homo sapiens) read?
Answer: Its Kd is 0.0515 µM.

Question: RNALDNLAVL was tested. Which Kd ([11]; source organism: Dengue virus 2 16681-PDK53) did it give?
Answer: Its Kd is 6.43 µM.

Question: With EPKISLLPL as the sequence, how does the Kd [11, 25] read?
Answer: The Kd was 0.00853 µM.

Question: For MYKSRVERV, which Kd [11, 25] is on record?
Answer: The Kd was 0.0465 µM.

Question: With FTFSNVCESV as the sequence, how does the Kd ([5]; source organism: Vaccinia virus Tian Tan) read?
Answer: The Kd was 0.0084 µM.

Question: How did the IC50 [12, 26] turn out when LFLPKLVVG was run?
Answer: Its IC50 is 1.56 µM.

Question: And the IC50 [17]?
Answer: Its IC50 is 35.3 µM.

Question: Which Kd [11, 25] does the source give for NMKFKNSVE here?
Answer: Its Kd is 1.34 µM.

Question: With KIDQIIHDF as the sequence, how does the IC50 [12, 26] read?
Answer: The IC50 was 46.9 µM.

Question: What about the IC50 [17] of the same sequence?
Answer: Its IC50 is 66.4 µM.

Question: Which Kd ([5]; source organism: Escherichia coli 536) does the source give for LLGPVIGML here?
Answer: The Kd was 0.0034 µM.

Question: Which IC50 [12, 26] does the source give for EAMNEENRF here?
Answer: The IC50 was ≥ 147 µM.

Question: Which Kd ([19]; source organism: Dengue virus 1 Brazil/97-11/1997) does the source give for WALCESITL here?
Answer: The Kd was 0.0757 µM.

Question: How did the Kd ([20]; source organism: Tacaribe virus strain V7) turn out when IRELMSVPY was run?
Answer: The Kd was ≥ 20 µM.

Question: Which IC50 [12, 26] does the source give for VYQVNNLEE here?
Answer: The IC50 was ≥ 254 µM.

Question: With GMKAFTAAV as the sequence, how does the Kd [6, 23] read?
Answer: Its Kd is 3.56 µM.

Question: And the Kd [20, 23]?
Answer: The Kd was 7.26 µM.

Question: What about the Kd [7, 23] of the same sequence?
Answer: Its Kd is 0.059 µM.

Question: What about the Kd [8] of the same sequence?
Answer: The Kd was 0.0748 µM.

Question: And the Kd [9]?
Answer: The Kd was 0.281 µM.

Question: For NLATSIYTI, which Kd ([5]; source organism: Variola virus) is on record?
Answer: The Kd was 0.0011 µM.

Question: With YLKWRWLHF as the sequence, how does the Kd [21] read?
Answer: Its Kd is 0.002 µM.

Question: Which Kd [19, 22] does the source give for IPFSTEDGQG here?
Answer: Its Kd is 1.73 µM.

Question: Which Kd ([14]; source organism: Homo sapiens) does the source give for DAYRRIHSL here?
Answer: The Kd was 16.4 µM.

Question: And the Kd ([6]; source organism: Homo sapiens)?
Answer: The Kd was 0.119 µM.

Question: VHEHDQIGD was tested. Which IC50 ([12]; source organism: Variola virus) did it give?
Answer: Its IC50 is 1.87 µM.

Question: For LEHGLFPQL, which IC50 [12, 26] is on record?
Answer: Its IC50 is 8.3 µM.

Question: And the IC50 [17]?
Answer: Its IC50 is ≥ 73.2 µM.
